Assay results from paper doi:10.1101/2020.07.14.203299 (bioRxiv, 2020).

T1: GST-FliJ (purified) (Salmonella enterica serovar Typhimurium, UniProt P0A1K1 1-147)
T1 sequence (looked up): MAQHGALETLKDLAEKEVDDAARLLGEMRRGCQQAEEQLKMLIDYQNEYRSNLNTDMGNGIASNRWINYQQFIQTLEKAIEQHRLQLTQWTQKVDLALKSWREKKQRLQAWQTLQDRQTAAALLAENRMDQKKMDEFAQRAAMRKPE

B1: His-FlgN (natural protein, Salmonella enterica serovar Typhimurium, UniProt P0A1J7 1-140, looked up)
chain: MTRLSEILDQMTTVLNDLKTVMDAEQQQLSVGQINGSQLQRITEEKSSLLATLDYLEQQRRLEQNAQRSANDDIAERWQAITEKTQHLRDLNQHNGWLLEGQIERNQQALEVLKPHQEPTLYGADGQTSVSHRGGKKISI

What was measured:
[1] = target: B1; assay: SPR
[2] = target: T1, GST-FliJ (purified); assay: SPR

Binder	Kd [1] [µM]	Kd [2] [µM]
GST-FliJ(Δ13–24) (natural protein, Salmonella enterica serovar Typhimurium, UniProt P0A1K1 1-147, looked up) MAQHGALETLKDLGEMRRGCQQAEEQLKMLIDYQNEYRSNLNTDMGNGIASNRWINYQQFIQTLEKAIEQHRLQLTQWTQKVDLALKSWREKKQRLQAWQTLQDRQTAAALLAENRMDQKKMDEFAQRAAMRKPE	7.74 ± 0.12	
B1		27.4 ± 13
